Four molecules from patent US20240101700A1 (BIOCON, published 2024) can be followed below.

Experiment [1] has as its target T1, CD6 (human, UniProt P30203 18-668, tyrosine phosphorylation of the cytoplasmic domain (sites not given)).
T1 construct: whole, on cells; Endogenous CD6 of human PBMCs; also called CD6 receptor; hCD6
T1 sequence (looked up): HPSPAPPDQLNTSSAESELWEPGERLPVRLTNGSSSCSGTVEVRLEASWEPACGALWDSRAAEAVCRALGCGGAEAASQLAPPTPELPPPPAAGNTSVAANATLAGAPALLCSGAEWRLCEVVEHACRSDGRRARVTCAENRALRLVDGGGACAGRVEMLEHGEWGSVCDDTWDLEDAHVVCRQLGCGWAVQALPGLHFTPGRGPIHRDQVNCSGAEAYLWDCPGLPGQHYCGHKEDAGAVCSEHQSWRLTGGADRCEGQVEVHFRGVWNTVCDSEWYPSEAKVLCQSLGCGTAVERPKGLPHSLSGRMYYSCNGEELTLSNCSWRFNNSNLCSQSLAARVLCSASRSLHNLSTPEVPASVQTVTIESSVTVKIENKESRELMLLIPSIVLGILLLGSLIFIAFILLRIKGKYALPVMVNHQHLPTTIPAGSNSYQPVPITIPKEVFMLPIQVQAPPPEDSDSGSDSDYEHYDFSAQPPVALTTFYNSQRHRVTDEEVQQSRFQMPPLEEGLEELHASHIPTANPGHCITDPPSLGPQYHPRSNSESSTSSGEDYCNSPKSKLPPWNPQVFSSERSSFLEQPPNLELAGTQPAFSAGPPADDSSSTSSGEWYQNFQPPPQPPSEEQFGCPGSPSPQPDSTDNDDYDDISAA
The experiment can be described thus: cell-based or functional assay.

Experiment [2] concerns the target T1, CD6. The experiment can be described thus: co-immunoprecipitation with CD6 (pulled down by itolizumab) and immunoblot; PBMCs on plate-bound ALCAM against no ALCAM. On the technique in general: A western blot detects proteins with antibodies after separation by electrophoresis.
Experiment [3] has as its target T1, CD6. The experiment can be described thus: immunoprecipitation of CD6 from human PBMC lysates and CD6 immunoblot. As to the method: In these experiments, PBMC were treated with 0.5 ng/ml anti-CD3 antibody (OKT 3) for 24 h in presence or absence of itolizumab or Iso Ab antibody. Cells were harvested and CD6 was immune-precipitated with itolizumab or Iso Ab. 10% total lysate served as input control samples. Both immune precipitated and input control samples were immune blotted and analyzed.

In the experiment with CD6 [1], “Fc-ALCAM (from UniProt Q13740 28-527) (Fc fusion)” had a CD6 tyrosine phosphorylation of over 2.5 fold; a phosphorylation of CD6 associated SHP1 and SHP2 of 3 to 4 fold.

Molecule SLP-76 (from UniProt Q13094 1-533) showed a fold increase of association with CD6 with CD6 [2] of 3 to 4 fold.

With “Zap70 (from UniProt P43403 1-619) (enzyme)”, in the experiment with CD6 [2], the fold increase of association with CD6 lay in the range of 3 to 4 fold.

B1: itolizumab (antibody, human IgG1, kappa, V domains shown)
VH: EVQLVESGGGLVKPGGSLKLSCAASGFKFSRYAMSWVRQAPGKRLEWVATISSGGSYIYYPDSVKGRFTISRDNVKNTLYLQMSSLRSEDTAMYYCARRDYDLDYFDSWGQGTLVTVSS
VL: DIQMTQSPSSLSASVGDRVTITCKASRDIRSYLTWYQQKPGKAPKTLIYYATSLADGVPSRFSGSGSGQDYSLTISSLESDDTATYYCLQHGESPFTLGSGTKLEIKR
notes: Humanized IgG1, produced at Biocon Ltd, used in soluble form; also called T1h; humanized IgG1 isotype anti-CD6 monoclonal antibody
Consider B1, for which the binding result in the experiment with CD6 [3] is given as “binds”.
